Results from patent publication US20240010722A1 (published 2024).
Changes are numbered by the printed parent chain. “And” between values parts separate entries of the source, which are not always exact repeats. Equal values may be shown once.

Columns and labels:
human MAdCAM [1] = biological target: T1, human MAdCAM (human, UniProt Q13477 19-317, limits assumed); experiment: BLI (Octet), binder on anti-human Fc tips
T1 construct: also called huMAdCAM; human MAdCAM-1
T1 sequence (looked up): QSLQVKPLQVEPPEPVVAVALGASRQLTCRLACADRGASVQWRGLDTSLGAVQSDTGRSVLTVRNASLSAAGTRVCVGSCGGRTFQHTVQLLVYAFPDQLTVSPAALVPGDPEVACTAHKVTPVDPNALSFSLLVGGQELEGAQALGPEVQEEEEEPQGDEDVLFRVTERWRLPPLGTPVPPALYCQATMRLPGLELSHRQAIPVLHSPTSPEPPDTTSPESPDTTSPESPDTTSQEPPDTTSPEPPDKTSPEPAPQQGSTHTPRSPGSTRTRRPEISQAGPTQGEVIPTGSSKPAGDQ

cyno MAdCAM [2] = biological target: T2, cyno MAdCAM (cynomolgus); experiment: BLI (Octet), binder on anti-human Fc tips
T2 construct: also called cynomolgus MAdCAM

human MAdCAM [3] = biological target: T1, human MAdCAM; experiment: BLI (Octet)
cyno MAdCAM [4] = biological target: T2, cyno MAdCAM; experiment: BLI (Octet)
mouse MAdCAM [5] = biological target: T3, mouse MAdCAM (mouse, UniProt Q61826 22-365, limits assumed); experiment: BLI (Octet)
T3 construct: also called mouse MAdCAM-1; muMAdCAM
T3 sequence (looked up): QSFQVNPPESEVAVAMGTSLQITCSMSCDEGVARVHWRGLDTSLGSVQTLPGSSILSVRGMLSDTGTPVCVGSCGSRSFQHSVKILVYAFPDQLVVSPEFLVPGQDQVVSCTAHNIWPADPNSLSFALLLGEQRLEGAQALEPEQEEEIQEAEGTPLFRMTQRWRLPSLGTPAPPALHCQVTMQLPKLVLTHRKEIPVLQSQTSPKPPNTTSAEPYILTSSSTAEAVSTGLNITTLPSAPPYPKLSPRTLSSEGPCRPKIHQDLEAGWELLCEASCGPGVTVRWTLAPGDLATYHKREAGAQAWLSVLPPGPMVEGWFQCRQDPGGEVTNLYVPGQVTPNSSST

mouse MAdCAM [6] = biological target: T3, mouse MAdCAM; experiment: BLI (Octet), binder on anti-human Fc tips

B1: MIAB169 (antibody, V domains shown)
VH: EVQLLESGGGLVQPGGSLRLSCAASGFTFSDFWMHWVRQAPGKGLEWISYISGDSGYTNYADSVKGRFTISRDNSKNTLYLQMNSLRAEDTAVYYCARDRPYYYIMDVWGKGTTVTVSS
VL: DIQMTQSPSSLSASVGDRVTITCRASQSVSRSLAWYQQKPGKAPKLLIYAASSLQSGVPSRFSGSGSGTDFTLTISSLQPEDFATYYCQQYKSYPVTFGQGTKVEIK
notes: tested with human Fc; also called MIAB169-CHO; MIAB169-HEK
Q: For B1, which Kd (human MAdCAM [1]) is on record?
A: 266 nM and 340 nM

Q: What about the “fold lower affinity than parent PRNT1” value (human MAdCAM [1]) of the same binder?
A: 10 fold

Q: And the koff (human MAdCAM [1])?
A: 0.0738 s⁻¹

Q: And the kon (human MAdCAM [1])?
A: 278000 M⁻¹ s⁻¹

Q: And the Kd (cyno MAdCAM [2])?
A: 153 nM

B2: PMAB18 (bispecific antibody, human IgG1, kappa)
heavy: QVQLVQSGAEVKKPGASVKVSCKASGYSFTTYYMHWVRQAPGQGLEWMGIIAPSGGSTSYAQKFQGRVTMTRDTSTSTVYMELSSLRSEDTAVYYCASGWVYWGQGTLVTVSSASTKGPSVFPLAPSSKSTSGGTAALGCLVKDYFPEPVTVSWNSGALTSGVHTFPAVLQSSGLYSLSSVVTVPSSSLGTQTYICNVNHKPSNTKVDKKVEPKSCDKTHTCPPCPAPEAAGAPSVFLFPPKPKDTLMISRTPEVTCVVVDVSHEDPEVKFNWYVDGVEVHNAKTKPREEQYNSTYRVVSVLTVLHQDWLNGKEYKCKVSNKALPAPIEKTISKAKGQPREPQVYTLPPSREEMTKNQVSLTCLVKGFYPSDIAVEWESNGQPENNYKTTPPVLDSDGSFFLYSKLTVDKSRWQQGNVFSCSVMHEALHNHYTQKSLSLSPGGGGGSGGGGSGGGGSEVQLLESGGGLVQPGGSLRLSCAASGFTFSSYWMHWVRQAPGKGLEWVSYISGSGGYTNYADSVKGRFTISRDNSKNTLYLQMNSLRAEDTAVYYCARDRPYYYDMDVWGKGTTVTVSSGGGGSGGGGSGGGGSGGGGSDIQMTQSPSSLSASVGDRVTITCRASQSISSSLAWYQQKPGKAPKLLIYAASSLQSGVPSRFSGSGSGTDFTLTISSLQPEDFATYYCQQYKSYPVTFGQGTKVEIK
light: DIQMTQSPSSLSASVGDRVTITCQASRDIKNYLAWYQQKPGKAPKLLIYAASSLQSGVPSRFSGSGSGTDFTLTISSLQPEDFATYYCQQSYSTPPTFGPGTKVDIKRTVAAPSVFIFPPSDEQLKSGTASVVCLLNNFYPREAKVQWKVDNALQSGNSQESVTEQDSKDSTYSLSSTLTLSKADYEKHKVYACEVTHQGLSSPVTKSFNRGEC
Q: What does the source list for B2?
A: Kd (human MAdCAM [3]): 198 nM; koff (human MAdCAM [3]): 0.0511 s⁻¹; kon (human MAdCAM [3]): 259000 M⁻¹ s⁻¹; response (human MAdCAM [3]): 0.184; Kd (cyno MAdCAM [4]): 22.6 nM; koff (cyno MAdCAM [4]): 0.0102 s⁻¹; kon (cyno MAdCAM [4]): 453000 M⁻¹ s⁻¹; response (cyno MAdCAM [4]): 0.145; Kd (mouse MAdCAM [5]): 201 nM; koff (mouse MAdCAM [5]): 0.0776 s⁻¹; kon (mouse MAdCAM [5]): 386000 M⁻¹ s⁻¹

B3: PMAB54 (bispecific antibody, human IgG1, kappa)
heavy: B2 heavy with Q1E, T31S, A52N, M563I
light: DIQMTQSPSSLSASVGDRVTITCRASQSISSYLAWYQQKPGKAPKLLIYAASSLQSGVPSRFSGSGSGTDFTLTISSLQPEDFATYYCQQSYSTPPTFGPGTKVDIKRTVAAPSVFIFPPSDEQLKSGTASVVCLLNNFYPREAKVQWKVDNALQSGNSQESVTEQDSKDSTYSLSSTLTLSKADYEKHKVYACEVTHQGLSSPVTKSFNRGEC
Q: B3 was tested. Which Kd (human MAdCAM [3]) did it give?
A: 592 nM

Q: What about the koff (human MAdCAM [3]) of the same binder?
A: 0.14 s⁻¹

Q: What about the kon (human MAdCAM [3]) of the same binder?
A: 236000 M⁻¹ s⁻¹

Q: And the Kd (cyno MAdCAM [4])?
A: 158 nM

Q: And the koff (cyno MAdCAM [4])?
A: 0.0114 s⁻¹

Q: And the kon (cyno MAdCAM [4])?
A: 71900 M⁻¹ s⁻¹

Q: And the Kd (mouse MAdCAM [5])?
A: 248 nM

Q: And the koff (mouse MAdCAM [5])?
A: 0.00138 s⁻¹

Q: And the kon (mouse MAdCAM [5])?
A: 5570 M⁻¹ s⁻¹

B4: PMAB55 (bispecific antibody, human IgG1, kappa)
heavy: B2 heavy with Q1E, T31S, A52N, M563L
light: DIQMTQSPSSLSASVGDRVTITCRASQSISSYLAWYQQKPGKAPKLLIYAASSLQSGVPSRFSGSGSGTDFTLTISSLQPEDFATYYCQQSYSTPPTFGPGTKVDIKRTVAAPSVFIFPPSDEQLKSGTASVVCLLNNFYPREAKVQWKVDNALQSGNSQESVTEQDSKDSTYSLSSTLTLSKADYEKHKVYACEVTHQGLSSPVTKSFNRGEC
Q: Which Kd (human MAdCAM [3]) does the source give for B4 here?
A: 47.6 nM

Q: And the koff (human MAdCAM [3])?
A: 0.00163 s⁻¹

Q: And the kon (human MAdCAM [3])?
A: 34300 M⁻¹ s⁻¹

Q: What about the Kd (cyno MAdCAM [4]) of the same binder?
A: 44.3 nM

Q: What about the koff (cyno MAdCAM [4]) of the same binder?
A: 0.00924 s⁻¹

Q: What about the kon (cyno MAdCAM [4]) of the same binder?
A: 209000 M⁻¹ s⁻¹

Q: What about the Kd (mouse MAdCAM [5]) of the same binder?
A: 59.5 nM

Q: What about the koff (mouse MAdCAM [5]) of the same binder?
A: 0.00131 s⁻¹

Q: What about the kon (mouse MAdCAM [5]) of the same binder?
A: 22000 M⁻¹ s⁻¹

B5: PMAB57 (bispecific antibody, human IgG1, kappa)
heavy: B2 heavy with S488D, Y489F, V505I, S511D, G512S, D562Y, I625V, S627R
light: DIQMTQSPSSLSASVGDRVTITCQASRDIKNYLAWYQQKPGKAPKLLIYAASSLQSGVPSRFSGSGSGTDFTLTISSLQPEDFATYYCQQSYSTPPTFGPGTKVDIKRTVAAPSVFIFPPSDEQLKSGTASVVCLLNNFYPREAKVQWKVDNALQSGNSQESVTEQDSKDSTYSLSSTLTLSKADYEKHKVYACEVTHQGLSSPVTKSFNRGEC
Q: What does the source list for B5?
A: Kd (human MAdCAM [3]): 122 nM; koff (human MAdCAM [3]): 0.0389 s⁻¹; kon (human MAdCAM [3]): 320000 M⁻¹ s⁻¹; response (human MAdCAM [3]): 0.18; Kd (cyno MAdCAM [4]): 49.9 nM; koff (cyno MAdCAM [4]): 0.0153 s⁻¹; kon (cyno MAdCAM [4]): 306000 M⁻¹ s⁻¹; response (cyno MAdCAM [4]): 0.169; Kd (mouse MAdCAM [5]): 205 nM; koff (mouse MAdCAM [5]): 0.0558 s⁻¹; kon (mouse MAdCAM [5]): 272000 M⁻¹ s⁻¹

B6: MIAB1 (antibody, V domains shown)
VH: EVQLLESGGGLVQPGGSLRLSCAASGFTFDDYAMHWVRQAPGKGLEWVASITSSSAFIDYADSVKGRFTISRDNSKNTLYLQMNSLRAEDTAVYYCAREPVDWNSYFDLWGQGTLVTVSS
VL: EIVMTQSPATLSVSPGERATLSCRASQGISNSYLAWYQQKPGQAPRLLIYGASTRATGIPARFSGSGSGTEFTLTISSLQSEDFAVYYCQQYYTYPPTFGQGTKVEIK
notes: tested with human Fc
Q: What does the source list for B6?
A: Kd (human MAdCAM [1]): 38.4 nM; Kd (cyno MAdCAM [2]): 26.5 nM; Kd (mouse MAdCAM [6]): 184 nM

B7: MIAB2 (antibody, V domains shown)
VH: B6 VH with P100R
VL: B6 VL
notes: tested with human Fc
Q: Which results are given for B7?
A: Kd (human MAdCAM [1]): 23.2 nM; Kd (cyno MAdCAM [2]): 18.8 nM; Kd (mouse MAdCAM [6]): 147 nM

B8: MIAB12 (antibody, V domains shown)
VH: B6 VH with P100R
VL: B6 VL with S26C, Q27P
notes: tested with human Fc
Q: How did the Kd (human MAdCAM [1]) turn out when B8 was run?
A: 19.3 nM

Q: What about the Kd (cyno MAdCAM [2]) of the same binder?
A: 19.5 nM

Q: And the Kd (mouse MAdCAM [6])?
A: 77.5 nM

B9: MIAB122 (antibody, V domains shown)
VH: B6 VH with T28I, P100R, N104F
VL: B6 VL with S26C, Q27P, G28S, I29V, S32N, A35V, G51D, Y93S, T94H, Y95W
notes: tested with human Fc
Q: What does the source list for B9?
A: Kd (human MAdCAM [1]): 48.2 nM; Kd (cyno MAdCAM [2]): 68.5 nM; Kd (mouse MAdCAM [6]): 130 nM

B10: MIAB123 (antibody, V domains shown)
VH: B6 VH with T28I, P100R, N104F
VL: B6 VL with G28S, I29V, S32N, A35V, G51D, Y93S, T94H, Y95W
notes: tested with human Fc
Q: What does the source list for B10?
A: Kd (human MAdCAM [1]): 39.7 nM; Kd (cyno MAdCAM [2]): 77.9 nM; Kd (mouse MAdCAM [6]): 164 nM

B11: MIAB209 (antibody, V domains shown)
VH: B6 VH with P100R
VL: B6 VL with G28S, I29V, S30Y, N31S, S32N, G51R, Y93S, T94H, Y95W
notes: tested with human Fc
Q: How did the Kd (human MAdCAM [1]) turn out when B11 was run?
A: 61.1 nM

Q: What about the Kd (cyno MAdCAM [2]) of the same binder?
A: 99 nM

Q: And the Kd (mouse MAdCAM [6])?
A: 35.2 nM

B12: MIAB25 (antibody, V domains shown)
VH: B6 VH with T28I, P100R, N104F
VL: EIVMTQSPATLSVSPGERATLSCRASQSVSNNLVWYQQKPGQAPRLLIYDASTRATGIPARFSGSGSGTEFTLTISSLQSEDFAVYYCQQYSHWPPTFGQGTKVEIK
notes: tested with human Fc
Q: Which Kd (human MAdCAM [1]) does the source give for B12 here?
A: 46.9 nM

Q: And the Kd (cyno MAdCAM [2])?
A: 60.8 nM

Q: And the Kd (mouse MAdCAM [6])?
A: 131 nM

B13: MIAB13 (antibody, V domains shown)
VH: B6 VH with P100R, D102L
VL: B12 VL with S28N, S30N, V34A, S52T, S92Y, P96Q
notes: tested with human Fc
Q: For B13, which Kd (human MAdCAM [1]) is on record?
A: 45.9 nM

Q: And the Kd (cyno MAdCAM [2])?
A: 33.4 nM

Q: And the Kd (mouse MAdCAM [6])?
A: 6.6 nM

B14: MIAB124 (antibody, V domains shown)
VH: EVQLLESGGGLVQPGGSLRLSCAASGFTFSTDAMSWVRQAPGKGLEWSAISGSGGSTYSADSVKGRFTISRDNSKNTLYLQMNSLRAEDTAVYYCARARVDWNSYNDLWGQGTLVTVSS
VL: B12 VL with S30N, N32K, V34A, D50A, H93T, P96I
notes: tested with human Fc
Q: Which Kd (cyno MAdCAM [2]) does the source give for B14 here?
A: 11.5 nM

B15: MIAB125 (antibody, V domains shown)
VH: B14 VH with T31N, D32Y, M34I, A49D, S56T, S59Y, A98E, N106F
VL: B6 VL
notes: tested with human Fc
Q: How did the Kd (cyno MAdCAM [2]) turn out when B15 was run?
A: 0.9 nM
